T1: Symplekin (human, UniProt Q92797 1-1274)
T1 sequence (looked up): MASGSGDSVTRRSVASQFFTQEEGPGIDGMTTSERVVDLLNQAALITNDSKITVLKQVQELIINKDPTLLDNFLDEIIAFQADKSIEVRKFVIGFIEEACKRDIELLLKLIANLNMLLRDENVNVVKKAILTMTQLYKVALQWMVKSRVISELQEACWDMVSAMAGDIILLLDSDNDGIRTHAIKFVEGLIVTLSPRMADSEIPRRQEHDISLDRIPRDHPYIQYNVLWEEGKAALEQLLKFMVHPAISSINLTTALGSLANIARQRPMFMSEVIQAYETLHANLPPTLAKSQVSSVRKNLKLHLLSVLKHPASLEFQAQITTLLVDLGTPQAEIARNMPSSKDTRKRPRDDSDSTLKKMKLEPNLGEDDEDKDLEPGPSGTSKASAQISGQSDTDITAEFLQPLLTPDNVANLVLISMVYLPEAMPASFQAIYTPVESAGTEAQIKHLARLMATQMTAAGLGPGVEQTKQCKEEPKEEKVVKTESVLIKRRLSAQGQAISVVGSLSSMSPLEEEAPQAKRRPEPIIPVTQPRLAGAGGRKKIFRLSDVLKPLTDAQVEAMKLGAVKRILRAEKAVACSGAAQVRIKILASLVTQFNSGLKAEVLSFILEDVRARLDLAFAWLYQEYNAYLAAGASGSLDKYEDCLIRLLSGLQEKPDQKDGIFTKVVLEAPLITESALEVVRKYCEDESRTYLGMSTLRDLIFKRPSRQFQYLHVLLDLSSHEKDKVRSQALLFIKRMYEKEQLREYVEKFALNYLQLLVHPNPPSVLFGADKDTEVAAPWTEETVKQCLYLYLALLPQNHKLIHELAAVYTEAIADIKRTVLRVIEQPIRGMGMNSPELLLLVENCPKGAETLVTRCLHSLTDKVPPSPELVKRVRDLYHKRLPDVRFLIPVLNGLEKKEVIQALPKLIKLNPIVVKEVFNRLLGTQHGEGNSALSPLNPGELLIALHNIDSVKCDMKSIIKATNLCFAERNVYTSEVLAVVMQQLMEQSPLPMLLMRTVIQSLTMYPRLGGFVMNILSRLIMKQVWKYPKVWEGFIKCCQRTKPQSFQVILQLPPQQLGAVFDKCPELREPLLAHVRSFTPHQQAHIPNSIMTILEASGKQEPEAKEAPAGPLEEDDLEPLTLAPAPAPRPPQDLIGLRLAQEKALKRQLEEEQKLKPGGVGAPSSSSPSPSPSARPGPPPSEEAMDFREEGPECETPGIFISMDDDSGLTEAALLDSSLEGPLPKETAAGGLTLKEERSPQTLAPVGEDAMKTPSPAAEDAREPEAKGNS

B1: Flag-Star-PAP (full length) (enzyme)
chain: MAAVDSDVESLPRGGFRCCLCHVTTANRPSLDAHLGGRKHRHLVELRAARKAQGLRSVFVSGFPRGVDSAQLSEYFLAFGPVASVVMDKDKGVFAIVEMGDVGAREAVLSQSQHSLGGHRLRVRPREQKEFQSPASKSPKGAAPDSHQLAKALAEAADVGAQMIKLVGLRELSEAERQLRSLVVALMQEVFTEFFPGCVVHPFGSSINSFDVHGCDLDLFLDLGDLEEPQPVPKAPESPSLDSALASPLDPQALACTPASPPDSQPPASPQDSEALDFETPSSSLAPQTPDSALASETLASPQSLPPASPLLEDREEGDLGKASELAETPKEEKAEGAAMLELVGSILRGCVPGVYRVQTVPSARRPVVKFCHRPSGLHGDVSLSNRLALHNSRFLSLCSELDGRVRPLVYTLRCWAQGRGLSGSGPLLSNYALTLLVIYFLQTRDPPVLPTVSQLTQKAGEGEQVEVDGWDCSFPRDASRLEPSINVEPLSSLLAQFFSCVSCWDLRGSLLSLREGQALPVAGGLPSNLWEGLRLGPLNLQDPFDLSHNVAANVTSRVAGRLQNCCRAAANYCRSLQYQRRSSRGRDWGLLPLLQPSSPSSLLSATPIPLPLAPFTQLTAALVQVFREALGCHIEQATKRTRSEGGGTGESSQGGTSKRLKVDGQKNCCEEGKEEQQGCAGDGGEDRVEEMVIEVGEMVQDWAMQSPGQPGDLPLTTGKHGAPGEEGQPSHAALAERGPKGHEAAQEWSQGEAGKGASLPSSASWRCALWHRVWQGRRRARRRLQQQTKEGAGGGAGTRAGWLATEAQVTQELKGLSGGEERPETEPLLSFVASVSPADRMLTVTPLQDPQGLFPDLHHFLQVFLPQAIRHLK
notes: Expressed in HEK 293 cells and purified on anti-FLAG M2 resin together with its associated complex; also called Flag tagged Star-PAP; full-length Star-PAP; not shown: FLAG tag

Columns and labels:
Assay in all cases: FLAG affinity purification from HEK 293 cells, western blot
[1] = biological target: B1
Experimental: (§1) Affinity purification of Flag-Star-PAP and Flag-PAPα and their associated complex of proteins in parallel allowed a comparison of the complexes formed by Star-PAP and PAPα in more detail. Flag tagged Star-PAP and PAPα were purified from HEK 293 cells stably expressing Flag-Star-PAP or Flag-PAPα (following manufacturer's instructions; Sigma-Aldrich) and the presence of endogenous symplekin, CPSF¹⁰⁰, CPSF⁷³, CstF⁶⁴, RNA Pol II, Sm protein (Y12) and PIPKIα was assessed by western blotting. Like Flag-PAPα, Flag-Star-PAP associates with symplekin, CPSF¹⁰⁰ and CPSF⁷³, further confirmation that Star-PAP may function in an mRNA polyadenylation complex (FIG. 7). Also detected with both PAPs was a faster migrating form of RNA Pol II and Sm protein (Y-12), a component of the spliceosome, which is consistent with reports that the machinery for splicing and polyadenylation are coupled.

[2] = biological target: T2, Flag-PAPα (canonical poly(A) polymerase) (Homo sapiens (Human), UniProt P51003 1-745, limits assumed)
T2 construct: not shown: FLAG tag
Experimental: as §1

Symplekin = biological target: T1, Symplekin
Experimental: as §1

T2 sequence (P51003 whole entry): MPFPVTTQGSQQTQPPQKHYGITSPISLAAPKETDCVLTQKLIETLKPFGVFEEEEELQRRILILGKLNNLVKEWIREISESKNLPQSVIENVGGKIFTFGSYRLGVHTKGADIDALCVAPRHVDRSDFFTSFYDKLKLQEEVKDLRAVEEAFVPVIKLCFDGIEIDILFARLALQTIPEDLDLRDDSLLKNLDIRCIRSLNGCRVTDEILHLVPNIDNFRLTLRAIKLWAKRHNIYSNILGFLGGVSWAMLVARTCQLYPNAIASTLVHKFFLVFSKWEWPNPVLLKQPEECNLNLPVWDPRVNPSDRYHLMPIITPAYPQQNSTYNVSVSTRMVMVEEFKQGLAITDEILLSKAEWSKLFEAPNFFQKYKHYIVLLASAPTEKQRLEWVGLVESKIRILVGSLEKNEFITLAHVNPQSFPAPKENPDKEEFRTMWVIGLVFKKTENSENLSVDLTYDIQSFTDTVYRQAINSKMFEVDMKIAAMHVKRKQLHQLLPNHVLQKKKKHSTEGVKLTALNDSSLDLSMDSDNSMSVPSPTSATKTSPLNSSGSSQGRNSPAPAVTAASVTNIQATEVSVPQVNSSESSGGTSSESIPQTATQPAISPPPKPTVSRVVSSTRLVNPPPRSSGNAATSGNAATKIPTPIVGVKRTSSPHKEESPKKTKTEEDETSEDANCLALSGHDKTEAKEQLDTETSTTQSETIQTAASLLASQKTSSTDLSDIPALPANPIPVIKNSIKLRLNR

binding result [1]	binding result [2]	binding result (Symplekin)	Binder
binds	binds	–	CPSF-73 (Cleavage and Polyadenylation Specificity Factor subunit 73) (enzyme, human, UniProt Q9UKF6 2-684, looked up, also called CSPF-73) SAIPAEESDQLLIRPLGAGQEVGRSCIILEFKGRKIMLDCGIHPGLEGMDALPYIDLIDPAEIDLLLISHFHLDHCGALPWFLQKTSFKGRTFMTHATKAIYRWLLSDYVKVSNISADDMLYTETDLEESMDKIETINFHEVKEVAGIKFWCYHAGHVLGAAMFMIEIAGVKLLYTGDFSRQEDRHLMAAEIPNIKPDILIIESTYGTHIHEKREEREARFCNTVHDIVNRGGRGLIPVFALGRAQELLLILDEYWQNHPELHDIPIYYASSLAKKCMAVYQTYVNAMNDKIRKQININNPFVFKHISNLKSMDHFDDIGPSVVMASPGMMQSGLSRELFESWCTDKRNGVIIAGYCVEGTLAKHIMSEPEEITTMSGQKLPLKMSVDYISFSAHTDYQQTSEFIRALKPPHVILVHGEQNEMARLKAALIREYEDNDEVHIEVHNPRNTEAVTLNFRGEKLAKVMGFLADKKPEQGQRVSGILVKRNFNYHILSPCDLSNYTDLAMSTVKQTQAIPYTGPFNLLCYQLQKLTGDVEELEIQEKPALKVFKNITVIQEPGMVVLEWLANPSNDMYADTVTTVILEVQSNPKIRKGAVQKVSKKLEMHVYSKRLEIMLQDIFGEDCVSVKDDSILSVTVDGKTANLNLETRTVECEEGSEDDESLREMVELAAQRLYEALTPVH
binds	–	–	CPSF-100 (Cleavage and Polyadenylation Specificity Factor subunit 100) (other, human, UniProt Q9P2I0 1-782, looked up, also called SPSF-100) MTSIIKLTTLSGVQEESALCYLLQVDEFRFLLDCGWDEHFSMDIIDSLRKHVHQIDAVLLSHPDPLHLGALPYAVGKLGLNCAIYATIPVYKMGQMFMYDLYQSRHNTEDFTLFTLDDVDAAFDKIQQLKFSQIVNLKGKGHGLSITPLPAGHMIGGTIWKIVKDGEEEIVYAVDFNHKREIHLNGCSLEMLSRPSLLITDSFNATYVQPRRKQRDEQLLTNVLETLRGDGNVLIAVDTAGRVLELAQLLDQIWRTKDAGLGVYSLALLNNVSYNVVEFSKSQVEWMSDKLMRCFEDKRNNPFQFRHLSLCHGLSDLARVPSPKVVLASQPDLECGFSRDLFIQWCQDPKNSIILTYRTTPGTLARFLIDNPSEKITEIELRKRVKLEGKELEEYLEKEKLKKEAAKKLEQSKEADIDSSDESDIEEDIDQPSAHKTKHDLMMKGEGSRKGSFFKQAKKSYPMFPAPEERIKWDEYGEIIKPEDFLVPELQATEEEKSKLESGLTNGDEPMDQDLSDVPTKCISTTESIEIKARVTYIDYEGRSDGDSIKKIINQMKPRQLIIVHGPPEASQDLAECCRAFGGKDIKVYMPKLHETVDATSETHIYQVRLKDSLVSSLQFCKAKDAELAWIDGVLDMRVSKVDTGVILEEGELKDDGEDSEMQVEAPSDSSVIAQQKAMKSLFGDDEKETGEESEIIPTLEPLPPHEVPGHQSVFMNEPRLSDFKQVLLREGIQAEFVGGVLVCNNQVAVRRTETGRIGLEGCLCQDFYRIRDLLYEQYAIV
binds	no binding	–	CstF-64 (Cleavage-Stimulatory Factor subunit 64) (other, human, UniProt P33240 1-577, looked up) MAGLTVRDPAVDRSLRSVFVGNIPYEATEEQLKDIFSEVGPVVSFRLVYDRETGKPKGYGFCEYQDQETALSAMRNLNGREFSGRALRVDNAASEKNKEELKSLGTGAPVIESPYGETISPEDAPESISKAVASLPPEQMFELMKQMKLCVQNSPQEARNMLLQNPQLAYALLQAQVVMRIVDPEIALKILHRQTNIPTLIAGNPQPVHGAGPGSGSNVSMNQQNPQAPQAQSLGGMHVNGAPPLMQASMQGGVPAPGQMPAAVTGPGPGSLAPGGGMQAQVGMPGSGPVSMERGQVPMQDPRAAMQRGSLPANVPTPRGLLGDAPNDPRGGTLLSVTGEVEPRGYLGPPHQGPPMHHVPGHESRGPPPHELRGGPLPEPRPLMAEPRGPMLDQRGPPLDGRGGRDPRGIDARGMEARAMEARGLDARGLEARAMEARAMEARAMEARAMEARAMEVRGMEARGMDTRGPVPGPRGPIPSGMQGPSPINMGAVVPQGSRQVPVMQGTGMQGASIQGGSQPGGFSPGQNQVTPQDHEKAALIMQVLQLTADQIAMLPPEQRQSILILKEQIQKSTGAP
–	–	binds	B1
